The source of these data is US20120244615A1.

This assay addresses tetrodotoxin (TTX)-resistant variant of sodium channel Nav1.6. The assay can be described thus: cell-based or functional assay.

Substance “full-length FHF2A protein (from UniProt Q92913 1-245)” gave a channels not recovering from inactivation within 20 msec (two-pulse whole cell voltage clamp, FIG. 2) (fraction of channels) of 0.33 and a percent of channels undergoing long-term inactivation (voltage dependence protocol, FIG. 4) of 35 to 40%.
